In this test the target is alpha-synuclein (Homo sapiens, UniProt P37840). Briefly: SPR.

These results are taken from article PMC2244645 (2007).

As usually defined, the Kd is the equilibrium constant for the complex coming apart.

As to AQSTQ [QSTQ peptide (immobilized with added N-terminal alanine)], the equilibrium dissociation constant (Kd) was determined as 19 µM.

Turning to APTYF [PTYF peptide (immobilized with added N-terminal alanine)], the dissociation constant Kd was more than 190 µM.
